Measurements reported in patent US20190248902A1 (published 2019).
Numbering of substitutions follows the chain as printed.

T1: soluble human ASGR-1 carbohydrate binding domain (CBD; amino acid residues 154-281; N-terminal 6xHis tag) (human, UniProt P07306 154-281)
T1 construct: also called ASGR-1 CBD
T1 sequence: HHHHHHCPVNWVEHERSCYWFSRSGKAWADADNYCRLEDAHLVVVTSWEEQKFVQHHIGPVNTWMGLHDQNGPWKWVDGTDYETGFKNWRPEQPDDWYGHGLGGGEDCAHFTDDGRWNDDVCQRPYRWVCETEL

T2: human ASGR-1 (wild type) (human, UniProt P07306 1-291)
T2 construct: also called wt ASGR1; huASGR-1
T2 sequence: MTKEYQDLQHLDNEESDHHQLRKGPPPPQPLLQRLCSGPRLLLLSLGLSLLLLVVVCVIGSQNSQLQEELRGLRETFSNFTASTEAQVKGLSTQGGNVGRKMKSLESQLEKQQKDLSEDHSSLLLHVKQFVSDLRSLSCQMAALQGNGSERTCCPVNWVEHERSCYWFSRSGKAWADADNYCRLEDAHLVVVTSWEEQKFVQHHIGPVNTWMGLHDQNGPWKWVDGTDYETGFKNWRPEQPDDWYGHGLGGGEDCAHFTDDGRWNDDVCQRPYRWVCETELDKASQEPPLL

T3: human ASGR-1 mutant construct H203 (human, UniProt P07306 1-291)
T3 construct: Arg/Glu scanning: non-arginine residues were changed to arginine; Transiently expressed on CHO-S cells
T3 sequence: T2 sequence with H203R

B1: 4H6 (antibody, V domains shown)
VH: QVQLVQSGAEVKKPGASVKVSCKASGYTFTDYYLHWVRQAPGQGLEWMGWIHPNSGGTNYAQKFQGRVTMTRDTSISTAYMGLSSLRSDDTAVYYCARDGTSSFDYWGQGTLVTVSS
VL: DIQMTQSPSSVSASVGDRVTITCRASQGISRWLAWYQQKPGKAPKLLIYGASSLQSGVPSRFSGSGSGTDFTLTISSLQPEDFAIYYCQQANSFPFTFGPGTKVDIK
notes: mAb
B2: 7F4 (antibody, V domains shown)
VH: QLQLQESGPGLVKPSETLSLTCTVSGGSISRSSYYWGWIRQPPGKGLEWIGNIYYSGATYYNPSLKSRVTISVDTSTNQFSLKLSSVTAADTAVYYCARHSGSWSLDYWGQGTLVTVSS
VL: DIQMTQSPSSLSASVGDRVTITCRTSQGIRNDLGWYQQKPGKAPKRLIYAASNLQSGVPSRFSGSGSGTEFTLTISSLQPEDFATYYCLQHSAYPLTFGGGTKVEIK
notes: mAb
B3: 198D2 (antibody, V domains shown)
VH: QVQLVESGGGVVQPGRSLRLSCAASGFTFRSYGMHWVRQAPGKGLEWVAVIIYDGSYKYYADSVKGRFTISRDNSKNTLYLQMNSLRAEDTAVYYCARTYSGGMDVWGQGTTVTVSS
VL: QSVLTQPPSVSAAPGQKVTISCSGSSSNIGSNYVSWYQQLPGTAPKVLIYDNNKRPSGIPDRFSGSKSGTSATLGITGLQTGDEADYYCGTWDSRLNVGVFGGGTKLTVL
notes: mAb
B4: 54E9 (antibody, V domains shown)
VH: QVQLVQSGAEVKKPGASVKVSCKASGYTFNSYGISWVRLAPGQGLEWMGWISAYNGNTKNAQKLQGRVTMTTDTSTSTAYMELRSLRSDDTAVYYCARHDFWSGYYKGMDVWGQGTTVTVSS
VL: not shown
notes: mAb
B5: 202A3 (antibody, V domains shown)
VH: QVQLEQSGAEVKKPGASVKVSCKASGYTFTSYDINWVRQATGQGLEWLGWMNPKRGNTGYAQKFQGRVTMTRNTSISTAHMELSSLRSEDTAVYYCARGRYSREDYYYYYDMDVWGQGTTVTVSS
VL: B2 VL with T5S, T25A, Y49C, N53R, T85I, S92H, A93D, L96F, G100P, E105D
notes: mAb
B6: 4B1 (antibody, V domains shown)
VH: QVQLQESGPGLVKPSETLSLTCSVSGDSISSYSWSWIRQPAGKGLEWIGRIYTSGSTNYIPSLKSRITMSVDTSKKQFSLKLSSVTAADTAVYYCARDLKSSGCLFFDYWGQGTLVTVSS
VL: DIQMTQSPSSLSASVGDRVTITCRASHTIRTYLNWYQQKPGKAPKLLIYAASSLQSGVPSRINGSGSGTDFTLTITNLQPEDFATYYCQQSYNISFTFGPGTKVDIK
notes: mAb
B7: 12D2 (antibody, V domains shown)
VH: EVQLVESGGGLVKPGGSLRLSCAASGFTFSSYSMNWVRQAPGKGLEWVSSISSSSSYIYYADSVKGRFTISRDNAKNSLYLQMNSLRAEDTAVYYCARLGDYWGQGTLVAVSS
VL: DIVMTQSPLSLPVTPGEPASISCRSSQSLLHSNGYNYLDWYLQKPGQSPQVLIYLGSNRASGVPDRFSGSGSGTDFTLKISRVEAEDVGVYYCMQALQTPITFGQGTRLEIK
notes: mAb

Target: T1, soluble human ASGR-1 carbohydrate …
Experiment: Octet BLI, mAb on AR2G tips, 1:1 fit
Excerpt: To quantitate the binding affinity of specific antibodies for ASGR-1 (either purified from hybridoma supernatants or made recombinantly), association and dissociation rates can be measured using a ForteBio Octet instrument. […] Experimental kinetic results were globally fit to a 1:1 binding model in order to determine the association and dissociation rate constants as well as the equilibrium dissociation constant. Association and dissociation times were chosen to ensure that curvature was present during association curves and measured dissociation levels dropped at least 5% from starting levels. All Octet buffers contained 10 mM Tris (pH7.5), 150 mM NaCl, 1 mM CaCl₂), 0.10 mg/ml BSA and 0.13% Triton X-100. Octet assays were run at 27° C. Because this assay only measures binding to the ASGR-1 CBD, antibodies that recognize epitopes partially or entirely outside the CBD and/or recognize ASGR-1 in the context of a native ASGR complex, for example, as could occur on cell membranes, may not score as positive in this assay.

Binder | Kd
B1 | 4.8 nM
B2 | 1.2 nM

Target: T2, human ASGR-1 (wild type)
Experiment: flow cytometry, CHO-S:huASGR-1 cells, 11-point titration
Description: CHO—S stable high-expressing cell line were developed for both human ASGR-1 as well as mouse ASGR-1. A typical 384 well plate multiplex flow cytometery-based cell binding method is described as followed: Parental CHO—S cells and CHO—S:huASGR-1 cells were respectively labeled using a CellTrace CFSE Cell Proliferation Kit (ThermoFisher Catalog #C34554) and CellTrace Violet Cell Proliferation Kit (ThermoFisher Catalog#C34557) CHO—S:muASGR-1 were not labeled. 20 ul of cells at 4C were added to duplicate wells of the 384 well plate. The cells were equally mixed from all three cell lines (30K cells/well). Then 20 ul of the ASGR-1 antibodies (either purified from hybridoma supernatants or made recombinantly) were added in an 11-point dose response using a 1:2 fold serial dilution starting at 100 nM. The cells and antibodies were incubated for 30 min at 4C and then spun down and washed twice with FACS buffer containing 1 mM CaCl2. 30 ul of anti-hulgG-APC secondary antibodies were then added at a 1:1000 dilution) for 30 min at 4C and then washed once with the same buffer. 60 ul of PI (1:1000) was added and then the cells were read by a core flow cytometry facility. The cells were gated first for live cells, then for single cells and finally for the cell dyes to separate the mixed cells into the three different cell populations. Histograms of signal vs count representing the binding profile of each antibody at each antibody concentration were automatically analyzed for the median of the binding signal and then a binding graph was made with log 10 antibody concentration in nM on the X axis with […] from the duplicate wells on the Y-axis. The binding curves were fit with a standard four parameter sigmoidal binding curve and EC50's reported for all graphs with full curves.

Binder | EC50
B3 | 0.14 nM
B4 | 5 nM
B5 | 0.8 nM
B1 | 1.7 nM
B2 | 5.4 nM
B6 | 4.1 nM
B7 | 3.2 nM

Target: T2, human ASGR-1 (wild type)
Experiment: FACS ratio: 65C12 geomean / this mAb geomean
How it was run: (§1)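 CHO-S cells transiently expressing wild-type or point-mutant hASGR-1 were stained with antibody at 5 ug/ml for 1 h at 4 °C. Bound antibody was detected by Fc-specific Alexa 647 secondary plus 7-AAD and read by flow cytometry. Ratio is 65C12 geomean divided by test mAb geomean, normalizing for expression.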

Binder | Expression Normalization to mAb 65C12
B3 | 3.32
B4 | 1.45
B5 | 2.26

Target: T3, human ASGR-1 mutant construct H203
Experiment: FACS ratio: 65C12 geomean / this mAb geomean
How it was run: as §1

Binder | Expression Normalization to mAb 65C12
B3 | 3.61
B4 | 1.68
B5 | 2.06

Target: T3, human ASGR-1 mutant construct H203
Experiment: FACS ratio: H203 normalized value / wt normalized value
How it was run: (§2)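 Transiently transfected CHO-S cells expressing wild-type or mutant hASGR-1 incubated with antibody at 5 ug/ml, 1 h at 4 °C; bound antibody detected by Alexa Fluor 647 anti-Fc plus 7-AAD, by flow cytometry. Binding normalized to expression using an unaffected antibody (65C12), then to wild type; hits defined as >3× IQR above third quartile.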

Binder | Normalization to wt ASGR1 Binding
B3 | 1.09
B4 | 1.16
B5 | 0.913

Target: T2, human ASGR-1 (wild type)
Experiment: FACS, transfected CHO-S cells, mAb 5 ug/ml
How it was run: as §2

Binder | FACS Binding Geomean
B3 | 16900
B4 | 38600
B5 | 24800

Target: T3, human ASGR-1 mutant construct H203
Experiment: FACS, transfected CHO-S cells, mAb 5 ug/ml
How it was run: as §2

Binder | FACS Binding Geomean
B3 | 7140
B4 | 15300
B5 | 12500
